The test system of assay [1] is murine T-cell hybridoma cell lines expressing human CD28 (PCD28.1.s2.1, DCL27CD28wt.s2). Kind of assay: IL-2 production by CD28 T-cell hybridomas (CTLL-2 bioassay). The assay is classed as cell-based. The source says:
The CD80- and CD86-Igαtp proteins were compared to the corresponding CD80 and CD86-Ig proteins to determine their ability to stimulate cells expressing human CD28 using two murine T-cell hybridoma cell lines expressing human CD28, PCD28.1.s2.1 and DCL27CD28wt.s2. The PCD28.1.s2.1 cell line was described in Example 1, part 3. The DCL27CD28wt.s2 cell line was created by transfection of the DC27 cell line [F. Pages et al., Nature, 369:327-329 (1994); F. Pages et al., J. Biol. Chem., 271(16):9403-9409 (1996)] with the same CD28 expression vector used for the PCD28.1.s2.1 cells [D. Couez et al., Molecular Immunology, 31:47-57 (1994)]. These cell lines were examined for their ability to produce IL-2 in response to activation with CD80- and CD86-Ig in comparison with the corresponding Igαtp fusion proteins. 96-well plates were coated with or without a CD3 antibody together with the CD80 and CD86 fusion proteins. This was accomplished by first incubating the plates with a previously determined suboptimal concentration of hamster […] CD3 antibody (MAb 145-2C11, Boerhinger-Mannheim Biochemicals) for two hours at room temperature (RT) or with just buffer alone, washing the plates with PBS, adding goat anti-human Ig heavy chain (GAH-IgHc, Sigma Chemical Co.) for an additional two hours at RT, washing again and coating with different concentrations of the CD80 or CD86 fusion protein for 16-18 hours at 4° C., washing again, and finally blocking for 30 min. with 0.2% BSA-PBS. […] T cells were incubated in the wells for 24 hours at 37° C., and supernatants were collected and evaluated for IL-2 levels in a standard CTLL-2 bioassay [S. M. Gillis et al., J. Immunol., 120:2027 (1978)]. […] OD570 readings were converted into ng/ml of IL-2 based on a standard curve generated by treating cells with known concentrations of IL-2.
(§1) IL-2 promoter activity and IL-2 levels were measured similarly to that described in parts A and B above, except that proliferation of the reader CTLL-2 cells was measured by ^3H-thymidine incorporation.

The subject of assay [2] is PCD28.1.S2.1 cells (human CD28, lacZ fused to the IL-2 promoter). Kind of assay: FDG assay for IL-2 promoter activity (lacZ reporter). Format: cell-based, murine. Conditions: added directly to PC28.1.s2.1 cells in solution (FIG. 20A). As to the method:
A second assay for agonist activity measured induction of IL-2 promoter activity, rather than production of IL-2 protein. The PCD28.1.S2.1 cells described above also contain lacZ fused to the IL-2 promoter. Thus, the PCD28.1.S2.1 cell line provides a convenient system for measuring IL-2 promoter activity upon CD28-mediated T cell simulation. T cells were activated as described above for the CTLL-2 assay, spun down, resuspended in 50 μl of media+50 μl of PBS, lysed with 10 μl of 20% Triton X-100, and supplemented with 25 μl of 10 mM FDG (Molecular Probes), a fluorogenic substrate for b-galactosidase. Hydrolysis of FDG first yields fluorescein monogalactoside (FMG) and then the highly fluorescent product fluorescein. Cell lysates were incubated with FDG for 60 min., and the levels of fluorescence were measured by Fluoroscan (MTX Lab Systems, Inc).
as §1

For a further assay, the target named is T1, CD28-Ig (Homo sapiens, UniProt P10747).
T1 construct: native leader and extracellular domain peptide of CD28 and CD80 were grafted onto a human IgG1 heavy chain Fc region; human IgG1 Fc (hinge/CH2/CH3); made in house; host or cells: CHO cells
Kind of assay: Isothermal titration calorimetry, binding to CD28-Ig in solution. An excerpt:
The solution binding properties of the hexameric and standard Ig fusion proteins of CD80 and CD86 were compared using isothermal titration calorimetry, essentially as described previously for other proteins [K. Johanson et. al., J. Biol. Chem, 270: 9459-9471 (1995), and references therein].
This lower affinity for CD28 than for CTLA4 is in agreement with other reports [P. S. Linsley et. al., Immunity 1: 793-801 (1994)].

The target in assay [3] is T2, human CD28 on PCD28.1.s2.1 cells (Homo sapiens, UniProt P10747).
T2 construct: expressed in transfected cells; host or cells: PCD28.1.s2.1 (PE30.2 murine T-cell hybridoma transfected with pHbactCd28neo)
Kind of assay: Flow cytometry binding to cells expressing cell-surface CD28. The assay is classed as cell-based. The conditions noted are these: on ice. As to the method: Non-adherent CD28 expressing cells (PCD28.1.s2.1) were used for this assay format. PCD28.1.S2.1 cells were created by transfection of PE30.2 cells [D. Emilie et al., Eur. J. Immunol., 19:1619-1624 (1989)] with a vector for expression of human CD28 [D. Couez et al., Molecular Immunology, 31:47-57 (1994)]. All incubations were carried out on ice. Unlabelled CD80- and CD86-Igαtp or CD80 and CD86-Ig were incubated with the cells in binding buffer consisting of PBS w/o Ca+2/Mg+2, 0.2% bovine serum albumin and 0.1 % sodium azide. After washing twice in binding buffer, bound fusion proteins were detected with a 1:2000 dilution of a goat anti-human polyclonal antibody labeled with FITC (Flourescein isothiocyanate, Southern Biotech). Following two additional washes in binding buffer, the cells were resuspended in binding buffer and analyzed on a FACSort analyzer (Becton-Dickinson) using a 488 nm laser.

B1: CD86-Ig: binding protein/Fc construct for CD86 with human IgG1 Fc (protein)
chain: APLKIQAYFNETADLPCQFANSQNQSLSELVVFWQDQENLVLNEVYLGKEKFDSVHSKYMGRTSFDSDSWTLRLHNLQIKDKGLYQCIIHHKKPTGMIRIHQMNSELSVLANFSQPEIVPISNITENVYINLTCSSIHGYPEPKKMSVLLRTKNSTIEYDGIMQKSQDNVTELYDVSISLSVSFPDVTSNMTIFCILETDKTRLLSSPFSIELEDPQPPPDHEPKSADKTHTCPPCP
modifications: left off: a dimerising Fc or GST
Turning to B1, the IL-2 production result in assay [1] (added directly to PC28.1.s2.1 cells in solution, CTLL-2 3H-thymidine incorporation (FIG. 20B)) is recorded as “no stimulation”; in assay [1] (soluble protein, absence of CD3 crosslinking) it was “no activity”. For the same molecule, in assay [1] (cross-linked with GAH antibody, no CD3 antibody), the IL-2 response entry is on record as “did not give a response”. Moreover, the IL-2 promoter activity result in assay [2] is listed as “no stimulation”. Also, in the assay with CD28-Ig, the “interaction with CD28-Ig in solution by calorimetry” value was “not detected”. For the same molecule, the “binding to CD28 positive cells” value in assay [3] was “no binding”.

These data come from patent US20020147326A1, “Hexameric fusion proteins and uses therefor” (SmithKline Beecham Corporation, priority 1996, published 2002).
